# Several values for one entry are separate records, joined by “and”; a condition that tells them apart may be missing. Equal entries are not always repeated.
# T1: TPR domain of human AIP, R304Q (disease-associated missense mutation) (human)
# T1 sequence (O00170 166-330 with R304Q, looked up): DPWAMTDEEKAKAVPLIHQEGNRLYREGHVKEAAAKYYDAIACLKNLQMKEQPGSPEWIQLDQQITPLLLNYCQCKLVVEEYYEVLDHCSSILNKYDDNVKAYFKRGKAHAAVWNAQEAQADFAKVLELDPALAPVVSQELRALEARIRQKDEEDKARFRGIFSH
# B1: TPR domain (residues 166–330) of human AIP (aryl hydrocarbon receptor interacting protein), wild type (domain or fragment, UniProt O00170 166-330, looked up)
# chain: DPWAMTDEEKAKAVPLIHQEGNRLYREGHVKEAAAKYYDAIACLKNLQMKEQPGSPEWIQLDQQITPLLLNYCQCKLVVEEYYEVLDHCSSILNKYDDNVKAYFKRGKAHAAVWNAQEAQADFAKVLELDPALAPVVSRELRALEARIRQKDEEDKARFRGIFSH
# notes: Residues Asp 172 to Arg 325 were visible in the TOMM20 peptide structure; also called AIP TPR-domain; WT
# Experiments:
# HSP90 = HSP90 ATPase assay; assay type: biochemical; conditions: 20-fold molar excess of full-length AIP
# [1] = target: B1; experiment: ITC; twenty 1.9 µL aliquots of peptide (350 to 600 µM) injected into 30 µM AIP TPR-domain; 20 mM Tris pH 7.5, 5 mM NaCl, 30°C; conditions: both partners purified
# [2] = target: TPR domain of human AIP, R304A mutant (human); experiment: as above
# [3] = target: T1, TPR domain of human AIP, R304Q (disease-associated missense mutation) (human); experiment: as above
# full-length human HSP90β [4] = target: T2, full-length human HSP90β (human, UniProt P08238 1-724); experiment: ITC; twenty 1.9 µL aliquots of AIP TPR-domain at 350 µM injected into 30 µM human HSP90β; 20 mM Tris pH 7.5, 5 mM NaCl, 30°C; conditions: both partners purified
# T2 construct: HSP90β, human, full length; also called FL-hHSP90β; intact HSP90
# full-length human HSP90β [5] = target: T2, full-length human HSP90β; experiment: as above; conditions: both partners purified; remark: listed apart in the source
# T2 sequence (P08238 whole entry): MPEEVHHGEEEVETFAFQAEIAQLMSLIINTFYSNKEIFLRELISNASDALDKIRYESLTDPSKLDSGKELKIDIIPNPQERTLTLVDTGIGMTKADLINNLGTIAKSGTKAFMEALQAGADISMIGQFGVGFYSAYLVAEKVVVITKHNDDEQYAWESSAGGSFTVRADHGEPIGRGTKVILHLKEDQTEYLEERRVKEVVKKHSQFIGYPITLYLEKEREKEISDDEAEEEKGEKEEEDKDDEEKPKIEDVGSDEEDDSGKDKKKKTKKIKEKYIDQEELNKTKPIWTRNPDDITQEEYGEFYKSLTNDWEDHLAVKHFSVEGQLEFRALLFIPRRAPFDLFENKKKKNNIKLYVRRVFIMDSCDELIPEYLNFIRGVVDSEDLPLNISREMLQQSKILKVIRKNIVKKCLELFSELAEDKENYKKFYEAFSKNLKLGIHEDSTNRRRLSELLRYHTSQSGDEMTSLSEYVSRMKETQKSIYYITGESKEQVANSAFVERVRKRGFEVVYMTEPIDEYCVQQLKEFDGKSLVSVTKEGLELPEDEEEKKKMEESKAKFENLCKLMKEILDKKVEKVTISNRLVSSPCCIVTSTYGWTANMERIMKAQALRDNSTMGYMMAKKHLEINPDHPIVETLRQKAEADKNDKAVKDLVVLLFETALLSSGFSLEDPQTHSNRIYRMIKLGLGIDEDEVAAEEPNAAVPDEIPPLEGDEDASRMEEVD
Molecule,Effect on the ATPase activity of HSP90 (HSP90),Kd [1],dH [1],stoichiometry N [1],Kd [2],dH [2],stoichiometry N [2],Kd [3],dH [3],stoichiometry N [3],Kd (full-length human HSP90β [4]),dH (full-length human HSP90β [4]),stoichiometry N (full-length human HSP90β [4]),stoichiometry N (full-length human HSP90β [5])
"full-length AIP: full-length aryl hydrocarbon receptor interacting protein, tested on HSP90 ATPase activity (protein, UniProt O00170 1-330, looked up, full-length) MADIIARLREDGIQKRVIQEGRGELPDFQDGTKATFHYRTLHSDDEGTVLDDSRARGKPMELIIGKKFKLPVWETIVCTMREGEIAQFLCDIKHVVLYPLVAKSLRNIAVGKDPLEGQRHCCGVAQMREHSSLGHADLDALQQNPQPLIFHMEMLKVESPGTYQQDPWAMTDEEKAKAVPLIHQEGNRLYREGHVKEAAAKYYDAIACLKNLQMKEQPGSPEWIQLDQQITPLLLNYCQCKLVVEEYYEVLDHCSSILNKYDDNVKAYFKRGKAHAAVWNAQEAQADFAKVLELDPALAPVVSRELRALEARIRQKDEEDKARFRGIFSH",did not influence,,,,,,,,,,,,,
MEEVD (extreme C-terminal five residues of HSP90; also called MEEVD (HSP90)) [MEEVD peptide (HSP90)],,12.6 ± 1.6 µM,-4.14 kcal/mol,1,,,,,,,,,,
AQSLAEDDVE (extreme C-terminus of human TOMM20; Only AEDDVE was visible in the crystal structure) [AQSLAEDDVE peptide (human TOMM20 C-terminus)],,12.3 ± 0.5 µM,-6.77 kcal/mol,0.87,16.6 µM,-4.51 kcal/mol,0.69,22.5 µM,-6.07 kcal/mol,0.66,,,,
GSGPTIEEVD (C-terminus of human HSP70; also called HSP70 peptide) [GSGPTIEEVD peptide (human HSP70 C-terminus)],,18.1 ± 1.9 µM,-6.35 kcal/mol,0.63,22.8 µM,-5.46 kcal/mol,0.66,31.1 µM,-5.5 kcal/mol,0.84,,,,
EDASRMEEVD (extreme C-terminus of human HSP90β; Only SRMEEVD was visible in the crystal structure) [EDASRMEEVD peptide (human HSP90β C-terminus)],,18.6 µM and 14.4 µM,-5.04 kcal/mol and -3.92 kcal/mol,1.2 and 1.1,15.6 µM,-6.44 kcal/mol,0.96,16.2 µM,-6.42 kcal/mol,0.98,,,,
B1,,,,,,,,,,,13.3 ± 1.8 µM,-4.55 kcal/mol,0.3,0.5
DDTSRMEEVD (extreme C-terminus of human HSP90α) [DDTSRMEEVD peptide (human HSP90α C-terminus)],,9.5 ± 0.6 µM,-3.53 kcal/mol,1.2,,,,,,,,,,
TLEELDW (also called TLEELDW (hPDE4A5); PDE4A5 peptide) [TLEELDW peptide (PDE4A5)],,64.5 ± 3.2 µM,-4.42 kcal/mol,0.89,,,,,,,,,,
